Test results from patent publication US20240150465A1 (Chugai, published 2024).

B1: D30841AE05-SG1 (antibody, human IgG1, kappa, V domains shown)
VH: QVQLKESGPALVKPTQTLTLTCTFSGFSLSSSYDMGWVRQAPGQGLEWMGTIYTGDYSTDYASWAKGRVTITADESTSTAYMELSSLRSEDTAVYYCARNTGYGYFGLWGQGTLVTVSS
VL: DIQLTQSPSFLSASVGDRVTITCQSTESVYGSDWLSWYQQKPGQPPKLLIYQASNLEIGVPSRFSGSGSGTDFTLTINSLEAEDAATYYCQGYYSGYIYAFGGGTKVEIKR
notes: Humanized variant of DLA0841 with SG1 heavy and SK1 light constant regions; Labelled with NHS-PEG4-Biotin when used as the first (immobilized) antibody in the Octet assay
B2: DLL3-14-SG1 (antibody, human IgG1, kappa, V domains shown)
VH: QVQLVQSGAEVKKPGASVKVSCKASGYTFTNYYMHWVRQAPGLGLEWMGIINPSDGSTSYAQKFQGRVTMTRDTSTNTVYMDLSSLRSEDTAVYYCARGGNSAFYSYYDMDVWGQGTTVTVSS
VL: DVVMTQTPLSLPVTLGQPASISCRSSQSLVYRDGNTYLSWFQQRPGQSPRRLIYKVSNWQSGVPDRFSGGGSGTDFTLKISRVEAEDVGVYYCMQGTHWPPTFGQGTKVEIKR
notes: Variable regions of a previously reported anti-DLL3 antibody on SG1/SK1; Used as a second antibody only

Assays:
recombinant human DLL3 [1] = molecular target: T1, recombinant human DLL3 (human, UniProt Q9NYJ7 27-492); test: Octet binning on SA sensor; Antibody A (biotinylated, loaded first): DL301-SG1; then 20 nM human DLL3, then 80 nM Antibody B
T1 sequence: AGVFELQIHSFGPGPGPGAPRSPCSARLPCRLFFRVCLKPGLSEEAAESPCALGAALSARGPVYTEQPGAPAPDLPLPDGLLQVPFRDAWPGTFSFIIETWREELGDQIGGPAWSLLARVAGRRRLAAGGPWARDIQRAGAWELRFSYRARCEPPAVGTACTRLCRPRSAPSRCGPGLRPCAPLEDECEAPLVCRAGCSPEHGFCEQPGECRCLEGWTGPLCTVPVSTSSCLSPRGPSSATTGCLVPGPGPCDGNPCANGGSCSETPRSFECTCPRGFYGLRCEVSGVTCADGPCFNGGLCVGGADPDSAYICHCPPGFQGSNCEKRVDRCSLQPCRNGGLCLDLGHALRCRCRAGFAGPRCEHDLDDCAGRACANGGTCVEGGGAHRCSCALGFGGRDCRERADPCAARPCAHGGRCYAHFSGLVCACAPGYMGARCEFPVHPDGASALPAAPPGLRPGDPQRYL
Description: (§1) Octet (registered trademark) RED384 (Fortebio) was used to perform competitive binding assays by epitope binning for a panel of antibodies. A biotinylated antibody (DL301-SG1, DL306-SG1, DL309-SG1, DL312-SG1, D30316AE02-SG1, and D30841AE05-SG1) at 40 nM was first loaded to a streptavidin (SA) biosensor. Next, the sensor is exposed to 20 nM of human DLL3, followed by exposure to 80 nM of second antibody. The second antibodies are DL301-SG1, DL306-SG1, DL309-SG1, DL312-SG1, D30316AE02-SG1, D30841AE05-SG1, DLL3-14-SG1, DLL3-22-SG1, DLL3-4-SG1 and DLL3-6-SG1. Raw data was processed using ForteBio's Data Analysis Software 7.0 and the antibody pairs were assessed for competitive binding. Additional binding by the second antibody indicates an unoccupied epitope (non-competitor), while no binding indicates epitope blocking (competitor).
(§2) The competition ratio of antibody B to antibody A was calculated using the following equation: Competition Ratio (Antibody B to Antibody A)=[Binding Response (Antibody B-Antigen)]/[Binding Response (Antigen-Antibody A)]

recombinant human DLL3 [2] = molecular target: T1, recombinant human DLL3; test: Octet binning on SA sensor; Antibody A (biotinylated, loaded first): D30316AE02-SG1; then 20 nM human DLL3, then 80 nM Antibody B
Description: as §1, §2

recombinant human DLL3 [3] = molecular target: T1, recombinant human DLL3; test: Octet binning on SA sensor; Antibody A (biotinylated, loaded first): DL306-SG1; then 20 nM human DLL3, then 80 nM Antibody B
Description: as §1, §2

recombinant human DLL3 [4] = molecular target: T1, recombinant human DLL3; test: Octet binning on SA sensor; Antibody A (biotinylated, loaded first): DL312-SG1; then 20 nM human DLL3, then 80 nM Antibody B
Description: as §1, §2

recombinant human DLL3 [5] = molecular target: T1, recombinant human DLL3; test: Octet binning on SA sensor; Antibody A (biotinylated, loaded first): DL309-SG1; then 20 nM human DLL3, then 80 nM Antibody B
Description: as §1, §2

recombinant human DLL3 [6] = molecular target: T1, recombinant human DLL3; test: Octet binning on SA sensor; Antibody A (biotinylated, loaded first): D30841AE05-SG1; then 20 nM human DLL3, then 80 nM Antibody B
Description: as §1, §2

| Binder | competition ratio (Antibody B to Antibody A) (recombinant human DLL3 [1]) | competition ratio (Antibody B to Antibody A) (recombinant human DLL3 [2]) | competition ratio (Antibody B to Antibody A) (recombinant human DLL3 [3]) | competition ratio (Antibody B to Antibody A) (recombinant human DLL3 [4]) | competition ratio (Antibody B to Antibody A) (recombinant human DLL3 [5]) | competition ratio (Antibody B to Antibody A) (recombinant human DLL3 [6]) |
| --- | --- | --- | --- | --- | --- | --- |
| B1 | 0.9 | 1.3 | -0.1 | 1.1 | 0.8 | 0 |
| B2 | 1.2 | 1.4 | 1.4 | 1.5 | 1 | 1.4 |
